Assay results reported in patent US20020052473.

Biological target: T1, full-length pro-IL-1H4
T1 chain: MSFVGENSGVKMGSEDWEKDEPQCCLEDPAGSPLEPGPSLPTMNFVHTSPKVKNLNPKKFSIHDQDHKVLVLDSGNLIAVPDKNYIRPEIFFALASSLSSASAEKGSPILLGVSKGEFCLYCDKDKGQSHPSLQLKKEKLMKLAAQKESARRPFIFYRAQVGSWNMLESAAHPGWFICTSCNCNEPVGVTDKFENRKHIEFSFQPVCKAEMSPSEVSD

B1: caspase 1 (protein)
chain: NPAMPTSSGSEGNVKLCSLEEAQRIWKQKSAEIYPIMDKSSRTRLALIICNEEFDSIPRRTGAEVDITGMTMLLQNLGYSVDVKKNLTASDMTTELEAFAHRPEHKTSDSTFLVFMSHGIREGICGKKHSEQVPDILQLNAIFNMLNTKNCPSLKDKPKVIIIQACRGDSPGVVWFKDSVGVSGNLSLPTTEEFEDDAIKKAHIEKDFIAFCSSTPDNVSWRHPTMGSVFIGRLIEHMQEYACSCDVEEIFRKVRFSFEQPDGRAQMPTTERVTLTRCFYLFPGH
With B1 the “cleavage of pro-IL-1H4 to mature IL-1H4 (SDS polyacrylamide gel)” value was “Caspase 1 at a ratio of 1:50 to 1:5 (caspase:IL-1H4, weight/weight) completely cleaved pro-IL-1H4 to release the mature IL-1H4”.

B2: caspase 4 (protein)
chain: QISPNKKAHPNMEAGPPESGESTDALKLCPHEEFLRLCKERAEEIYPIKERNNRTRLALIICNTEFDHLPPRNGADFDITGMKELLEGLDYSVDVEENLTARDMESALRAFATRPEHKSSDSTFLVLMSHGILEGICGTVHDEKKPDVLLYDTIFQIFNNRNCLSLKDKPKVIIVQACRGANRGELWVRDSPASLEVASSQSSENLEEDAVYKTHVEKDFIAFCSSTPHNVSWRDSTMGSIFITQLITCFQKYSWCCHLEEVFRKVQQSFETPRAKAQMPTIERLSMTRYFYLFPGN
B2 was tested, and the “cleavage of pro-IL-1H4” value was “caspase 4 also cleaved pro-IL-1H4, although not as efficiently as caspase 1”.
